We go through two molecules from US8153413B2, “High alkaline protease and use thereof” (Japan Agency for Marine-Earth Science and Technology, priority 2004, dated 2012).

One series concerns invention enzyme. Kind of series: Hydrolysis of natural proteins relative to casein. The class given is biochemical, Alkaliphillus transvaalensis.
Series [1] has as its system casein. Kind of series: Optimum pH / active pH, casein method. To be noted: 1% (w/v) casein, 40° C., 15 minutes, highest activity in 50 mmol/L potassium chloride/sodium hydroxide buffer. It is filed as biochemical. How it is done:
1 ml of each 50 mmol/L buffer containing 1% (w/v) casein (Hammerstein, Merck) was warmed at 40° C. for 5 minutes, and 0.1 ml of the enzyme solution was then added. A reaction was conducted for from 15 to 20 minutes. Subsequently, 2 ml of a trichloroacetic acid solution (TCA solution: 0.11 mol/L trichloroacetic acid, 0.22 mol/L sodium acetate and 0.33 mol/L acetic acid) was added to terminate the reaction. The reaction solution was allowed to stand at room temperature for 10 minutes, and the acid-modified protein was filtered (No. 2 filter paper, manufactured by Watman). 2.5 ml of an alkaline copper reagent [1% (w/v) potassium sodium tartrate: 1% (w/v) copper sulfate: 2% (w/v) sodium carbonate/0.1 mol/L sodium hydroxide=1:1:100] was added to 0.5 ml of the filtrate, and the mixture was warmed at 30° C. for 10 minutes. Thereafter, 0.25 ml of a dilute phenol reagent [phenol reagent (manufactured by Kanto Kagaku) diluted twofold with deionized water] was added, and the mixture was warmed at 30° C. for 30 minutes. Absorbance at 660 nm was measured with a spectrophotometer to obtain an amount of an acid-soluble protein hydrolyzate. By the way, a system obtained by mixing the enzyme reaction system with a reaction terminator and adding the enzyme solution thereto was used as a blank.
Herein, one unit (PU) of the enzyme referred to an amount of an enzyme in which to liberate the acid-soluble protein hydrolyzate corresponding to 1 μmol of tyrosine for 1 minute under the foregoing reaction conditions.
The invention enzyme was reacted at 40° C. for 15 minutes in various buffers of pH 3.5 to 12.6 containing 1% (w/v) casein as a substrate, and the enzymatic activity at each pH was measured. The results thereof are shown in FIG. 1A in terms of relative activity when the highest activity was defined as 100%.
Acetate buffer ( ? ): pH 3.5 to 6.0, phosphate buffer (▪): pH 6.5 to 8.1, carbonate buffer (◯): pH 9.0 to 11.0, phosphate/sodium hydroxide buffer (●): pH 11.0 to 12.2, and potassium chloride/sodium hydroxide buffer (▴): pH 11.5 to 12.6.

In series [2] the test system is casein. As to the kind of experiment: Optimum temperature, casein method. It is filed as biochemical. To be noted: for influence of Ca2+ / calcium chloride on optimum temperature: calcium chloride 5 mmol/L. How it is done:
0.1 ml of the invention enzyme solution was added to 1 ml of 50 mmol/L borate buffer (pH 10.0) containing 0.5% (w/v) casein as a substrate, and a reaction was conducted at a temperature of from 30 to 85° C. for 15 minutes. Activity was measured by the casein method. Relative activity at each temperature is shown in FIG. 2A in which activity in the absence of calcium chloride at 50° C. is defined as 100%. “●” indicates relative activity in the absence of calcium chloride, and “∘” relative activity in the presence of calcium chloride.

A short description of series [3]: Thermostability, residual activity after heat treatment by casein method. The conditions noted are these: for influence of Ca2+ / calcium chloride on thermostability: calcium chloride 5 mmol/L. It is filed as physicochemical. The method, then: The invention enzyme was added to 50 mmol/L borate buffer (pH 10.0), and heat treatment was conducted at each temperature of from 30 to 75° C. for 10 minutes. The residual activity was measured by the casein method. The residual activity after the heat treatment is shown in FIG. 2B in which activity before the heat treatment is defined as 100%.

In another series the test system is acidic insulin B-chain. Kind of series: Cleavage of acidic insulin B-chain (LC/MS/MS). It is filed as biochemical. The conditions noted are these: 30° C. The method, then: 3 ng of alkaline protease ALTP was added to a solution obtained by adding 0.1 mg of insulin B-chain to 100 μl of 0.1 mol/L Tris-hydrochloride buffer (pH 8.0), and a reaction was conducted at 30° C. for from 1 to 5 minutes. 5 μl of the solution was collected after 1 minute, 2 minutes and 5 minutes from the start-up of the reaction, and the reaction was terminated by addition of 50 μl of a 2% (v/v) acetonitrile/0.1% trifluoroacetic acid solution (pH 2.2). The reaction solutions were analyzed by liquid chromatograph/tandem mass analyzer (LC/MS/MS). A mixture of fragmental peptides digested with alkaline protease ALTP of the invention was separated and concentrated by capillary HPLC, and ionized to obtain MS and MS/MS spectra. The MS/MS data of the peptides was subjected to Turbo Sequest search to identify the digested acidic insulin B-chain fragments and determine the cleavage sites. Because of the search with the MS/MS data, the highly reliable identification results were obtained.
A reaction was conducted at 30° C. for 24 hours under the same conditions as in (i) by changing the concentration of alkaline protease ALTP to 300 ng. After the termination of the reaction, the acidic insulin B-chain fragment digested with alkaline protease ALTP was identified by the foregoing method to determine cleavage sites. […]

[4] abbreviates: listed as novel alkaline protease.

hemoglobin: the “hydrolytic activity, casein defined as 100%” value in the series with invention enzyme was “approximately 73%”.

B1: alkaline protease ALTP: purified high alkaline protease from Alkaliphillus transvaalensis, mature enzyme amino acid sequence SEQ ID NO: 3 (protein, listed as Alkaliphillus transvaalensis)
chain: AQSTPWGVTRVQAPNVWNRGFTGSGVRVAVLDTGIHSSHEDLTVSGGYSVFGDSPYNDVQGHGTHVAGTIAARNNSVGVIGVAYNAQLYAVKVLNNQGSGTLAGIAQGIEWARQNNMHVINMSLGGTSGSTTLQNAVNAAYNAGILVVAAAGNSGNSAGTGDNVGFPARYPNAMAVAATTSGNVRASFSSTGPAVEIAAPGQDINSTYPTNTYRSLNGTSMAAPHVAGVAALLKSARPAVTAAGIRNAMNSTALNLGNSNWYGNGLVRANNALDMVLSY
In the case of B1, the “optimum pH” value with casein [1] was 12.6; in the series with casein [1] (listed as invention enzyme), “approximately 12.6”; in the series with casein [1] (setting [4]), “approximately 12.6”. For the same molecule, in the series on casein [2] (borate buffer pH 10.0, casein, 15 minutes), the optimum temperature was determined as 70 °C. Also, the “influence of Ca2+ / calcium chloride on optimum temperature” value with casein [2] was “little influenced”; in the series with casein [2] (listed as invention enzyme), “unchanged”; with casein [2] (setting [4]) it was “still unchanged”. For the same molecule, the “influence of Ca2+ / calcium chloride on thermostability” value in series [3] is recorded as “No improvement”; in series [3] (listed as invention enzyme), “unchanged”; in series [3] (setting [4]), “still unchanged”. The “temperature up to which stable without activity drop by heating” value in series [3] (pH 10 for 10 minutes) is “up to 65 °C”. Further, the “bond cleaved first / at the initial stage” value with acidic insulin B-chain (3 ng ALTP, within 5 minutes) is given as “Leu-Tyr”. For the same molecule, the “peptide bonds of 29 peptide bonds cleaved” value in the series with acidic insulin B-chain (300 ng ALTP, within 24 hours) came out at 26.
